Literature values, collected in article PMC5627252.
Like-named read-outs stand apart in the source and are kept apart here. Each block holds one substance with its values, some of them ahead of it.

Experiments:
FcγRIIIa (Homo sapiens) [1] = target: FcγRIIIa (Homo sapiens) (UniProt P08637)
FcγRIIIa (Homo sapiens) [2] = target: FcγRIIIa (Homo sapiens) (UniProt P08637); remark: listed apart in the source
FcγRIIIa (Homo sapiens) [3] = target: FcγRIIIa (Homo sapiens) (UniProt P08637); remark: listed apart in the source

FcγRIIIa (Homo sapiens), sequence (P08637 17-254): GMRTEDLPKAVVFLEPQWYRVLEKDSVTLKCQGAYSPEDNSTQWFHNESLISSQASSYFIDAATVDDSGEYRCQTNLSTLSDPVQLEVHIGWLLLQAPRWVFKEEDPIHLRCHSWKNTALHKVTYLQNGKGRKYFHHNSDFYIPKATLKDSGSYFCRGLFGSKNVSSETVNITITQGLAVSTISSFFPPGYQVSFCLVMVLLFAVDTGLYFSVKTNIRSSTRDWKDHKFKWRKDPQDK

- Kd (FcγRIIIa (Homo sapiens) [1]): 26 nM
Substance: IgG1 Fc-Man8 Fc (from UniProt P01857)

- Kd (FcγRIIIa (Homo sapiens) [2]): 32 nM
Substance: IgG1 Fc-Man5 Fc (from UniProt P01857)

- Kd (FcγRIIIa (Homo sapiens) [3]): 995 nM
Substance: IgG1 Fc-GlcNAc Fc (from UniProt P01857)
